Results from paper PMC8189464, “SARS-CoV-2 Envelope (E) protein interacts with PDZ-domain-2 of host tight junction protein ZO1” (PLoS ONE, 2021).
*: point of attachment. Biotin = O=C1N[C@H]2[C@H](CS[C@H]2CCCCC(=O)*)N1

Molecular target: T1, GST-PDZ domain #2 of human Zona Occludens-1 (ZO1) (human, UniProt Q07157 186-264)
T1 construct: second PDZ domain (PDZ domain #2) of human Zona Occludens-1 (ZO1), from plasmid pGEX-ZO1-2/3; also called GST-ZO1 PDZ domain #2; GST-ZO1-PDZ-2; source: E. coli BL21(DE3), purified (glutathione-Sepharose 4B); on the array: purified GST fusion protein
T1 sequence (looked up): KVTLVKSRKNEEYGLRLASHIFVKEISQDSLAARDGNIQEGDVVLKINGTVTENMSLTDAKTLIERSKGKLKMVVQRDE
Assay: AlphaScreen or HTRF; GST protein pre-bound to anti-GST-terbium donor antibody, biotinylated peptide pre-bound to streptavidin-d2 acceptor; serial 1:2 dilutions of both in a matrix; 25 mM HEPES pH 7.4, 150 mM NaCl, 5 mM MgCl2, 0.005% Tween-20; 1 hr incubation; one-site saturation binding fit; Kd at 3 nM GST-ZO1 PDZ domain #2
Details: both partners purified

Biotin-SRVKNLNSSRVPDLLV-OH (also called WT E peptide; Bt-WT peptide) [SARS-CoV-2 E WT peptide (Biotin-SRVKNLNSSRVPDLLV-COOH)]
Kd: 29 nM
